The target in assay [1] is T1, ΔN19.1.1 deletion mutant of Osf2 (His-tagged) (mouse, UniProt Q08775 99-607).
T1 construct: counted with Met69 of the cDNA as residue 1
Kind of assay: EMSA with labeled OSE2 oligonucleotide, with or without Cbfβ.
Method: (§1) DNA-binding assays were performed with 5 fmol of ^32P-labeled double-stranded OSE2 oligonucleotides, in a buffer containing 20 mM Tris-HCl, pH 8.0, 10 mM NaCl, 3 mM EGTA, 0.05% NP-40, 5 mM DTT, and 2 μg of poly (dI.dC).poly (dI.dC), with equivalent amounts of wild type or mutant proteins. […] Typically, 100 ng of fusion protein bound to glutathione-agarose beads was used for each assay, while the amount of labeled protein in the assay was determined using fluorography.

The target of assay [2] is T2, histidine-tagged recombinant Osf2/Cbfa1 polypeptide (His-Osf2/Cbfa1) (mouse, UniProt Q08775 80-607).
T2 construct: Bacterially expressed, enriched on Ni resin; also called His-tagged Osf2/Cbfa1 polypeptide
Described as above.
Method: as §1

T1 sequence (Q08775 other isoform, or with tags, fused parts or gaps mutant): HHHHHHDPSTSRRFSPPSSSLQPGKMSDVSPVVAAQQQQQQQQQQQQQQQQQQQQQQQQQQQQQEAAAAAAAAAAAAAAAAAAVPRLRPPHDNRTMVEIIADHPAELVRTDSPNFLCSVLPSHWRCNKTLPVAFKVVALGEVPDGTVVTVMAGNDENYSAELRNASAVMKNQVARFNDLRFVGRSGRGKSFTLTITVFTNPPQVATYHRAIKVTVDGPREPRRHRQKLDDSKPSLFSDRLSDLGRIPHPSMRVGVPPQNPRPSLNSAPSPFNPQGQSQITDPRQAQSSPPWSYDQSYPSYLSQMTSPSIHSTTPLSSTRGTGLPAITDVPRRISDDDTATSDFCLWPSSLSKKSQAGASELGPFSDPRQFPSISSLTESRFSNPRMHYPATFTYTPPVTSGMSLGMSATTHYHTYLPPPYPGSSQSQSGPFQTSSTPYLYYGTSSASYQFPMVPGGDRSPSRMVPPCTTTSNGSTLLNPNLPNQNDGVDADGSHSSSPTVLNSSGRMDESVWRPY
T2 sequence (Q08775 other isoform, or with tags, fused parts or gaps): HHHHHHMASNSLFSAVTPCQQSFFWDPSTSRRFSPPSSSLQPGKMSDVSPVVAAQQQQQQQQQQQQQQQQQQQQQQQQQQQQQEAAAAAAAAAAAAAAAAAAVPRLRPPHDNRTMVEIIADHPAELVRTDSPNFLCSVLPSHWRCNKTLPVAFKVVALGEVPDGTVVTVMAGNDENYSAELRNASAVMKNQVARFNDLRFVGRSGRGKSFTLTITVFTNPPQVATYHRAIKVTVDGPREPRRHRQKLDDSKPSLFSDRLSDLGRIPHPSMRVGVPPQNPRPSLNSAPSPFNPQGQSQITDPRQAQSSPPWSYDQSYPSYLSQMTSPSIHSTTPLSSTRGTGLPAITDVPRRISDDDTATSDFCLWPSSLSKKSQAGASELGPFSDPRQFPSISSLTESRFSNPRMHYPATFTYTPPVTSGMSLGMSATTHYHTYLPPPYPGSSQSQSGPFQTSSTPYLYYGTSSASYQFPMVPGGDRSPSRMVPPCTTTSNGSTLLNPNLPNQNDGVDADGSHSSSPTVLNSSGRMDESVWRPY

B1: histidine-tagged Cbfβ (other)
chain: HHHHHHMPRVVPDQRSKFENEEFFRKLSRECEIKYTGFRDRPHEERQTRFQNACRDGRSEIAFVATGTNLSLQFFPASWQGEQRQTPSREYVDLEREAGKVYLKAPMILNGVCVIWKGWIDLHRLDGMGCLEFDEERAQQEDALAQQAFEEARRRTREFEDRDRSHREEMEARRQQDPSPGSNLGGGDDLKLR
notes: Recombinant Cbfβ added in EMSA; also called Cbf]3
Consider B1, for which the binding result in assay [1] and in assay [2] was “no binding” in each case.

The values are drawn from patent US6518063 (University of Texas, dated 1998).
